Test results published in patent publication US20220098306A1 (published 2022).
Where two headings read alike, the source gives them in different places.

T1: B7H3 (antigen of the affinity statements) (human, UniProt Q5ZPR3 29-466)
T1 chain: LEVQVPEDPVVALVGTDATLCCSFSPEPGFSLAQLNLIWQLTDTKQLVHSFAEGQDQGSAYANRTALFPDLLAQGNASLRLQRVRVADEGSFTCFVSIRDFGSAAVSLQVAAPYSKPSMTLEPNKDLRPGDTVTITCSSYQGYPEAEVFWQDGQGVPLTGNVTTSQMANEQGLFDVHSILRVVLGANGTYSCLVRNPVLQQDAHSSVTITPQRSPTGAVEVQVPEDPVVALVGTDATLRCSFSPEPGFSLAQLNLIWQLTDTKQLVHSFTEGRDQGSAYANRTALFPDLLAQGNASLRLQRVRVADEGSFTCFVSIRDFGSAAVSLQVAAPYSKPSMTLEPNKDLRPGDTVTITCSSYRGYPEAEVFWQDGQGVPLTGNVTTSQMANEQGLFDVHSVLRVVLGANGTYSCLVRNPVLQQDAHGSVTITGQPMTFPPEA


Assays:
CD28-Fc-His protein [1] = molecular target: T2, CD28-Fc-His protein (human, UniProt P10747 19-152); experiment: Octet; 1:1 Langmuir
CD28-Fc-His protein [2] = molecular target: T2, CD28-Fc-His protein; experiment: Octet; Steady State
[3] = molecular target: T3, CD28 (antigen of the affinity determinations) (human, UniProt P10747 19-152); experiment: -; Fab, 2+1 CLC
[4] = molecular target: T1, B7H3 (antigen of the affinity …); experiment: -; monovalent KD
[5] = molecular target: T3, CD28 (antigen of the affinity …)
[6] = molecular target: T3, CD28 (antigen of the affinity …); experiment: -; scFv VHVL, 1+1 Fab-scFv-Fc

Binder	Kd (CD28-Fc-His protein [1]) [nM]	Kd (CD28-Fc-His protein [2]) [nM]	Kd [3] [nM]	Kd [6] [nM]	further results
XENP34389 (bispecific antibody) heavy 1: EVQLLESGGGLVQPGGSLRLSCAASGFTFSNYYMAWVRQAPGKGLEWVSSISTGGGSTYYRDSVKGRFTISRDNSKSTLYLQMNSLRAEDTAVYYCTTDLSAIAATPFAYWGQGTLVTVSSASTKGPSVFPLAPSSKSTSGGTAALGCLVKDYFPEPVTVSWNSGALTSGVHTFPAVLQSSGLYSLSSVVTVPSSSLGTQTYICNVNHKPSDTKVDKKVEPKSCDKTHTCPPCPAPPVAGPSVFLFPPKPKDTLMISRTPEVTCVVVDVKHEDPEVKFNWYVDGVEVHNAKTKPREEEYNSTYRVVSVLTVLHQDWLNGKEYKCKVSNKALPAPIEKTISKAKGQPREPQVYTLPPSREEMTKNQVSLTCDVSGFYPSDIAVEWESDGQPENNYKTTPPVLDSDGSFFLYSKLTVDKSRWEQGDVFSCSVMHEALHNHYTQKSLSLSPGK heavy 2: not shown light: DIQMTQSPSSLSASVGDRVTITCRASQNIYTSLAWYQQKPGKAPKLLIYNAHSLQTGIPSRFSGSGSGADFTLTISSLQPEDFATYFCQQYYSGLTFGSGTKLEIKRTVAAPSVFIFPPSDEQLKSGTASVVCLLNNFYPREAKVQWKVDNALQSGNSQESVTEQDSKDSTYSLSSTLTLSKADYEKHKVYACEVTHQGLSSPVTKSFNRGEC	790	560	–	–	–
XENP34339 (bispecific antibody) heavy 1: EVQLLESGGGLVQPGGSLRLSCAASGFTFSSYYMSWVRQAPGKGLEWVSTISESGDSTYYADSVKGRFTISRDNSKNTLYLQMNSLRAEDTAVYYCAKSGPGLRQVGFDYWGQGTLVTVSSASTKGPSVFPLAPSSKSTSGGTAALGCLVKDYFPEPVTVSWNSGALTSGVHTFPAVLQSSGLYSLSSVVTVPSSSLGTQTYICNVNHKPSDTKVDKKVEPKSCDKTHTCPPCPAPPVAGPSVFLFPPKPKDTLMISRTPEVTCVVVDVKHEDPEVKFNWYVDGVEVHNAKTKPREEEYNSTYRVVSVLTVLHQDWLNGKEYKCKVSNKALPAPIEKTISKAKGQPREPQVYTLPPSREEMTKNQVSLTCDVSGFYPSDIAVEWESDGQPENNYKTTPPVLDSDGSFFLYSKLTVDKSRWEQGDVFSCSVMHEALHNHYTQKSLSLSPGK heavy 2: QVQLVQSGAEVKKPGASVKVSCKASGYIFTNNYMHWVRQAPGQGLEWMGIISPSVGRTAYAQKFQGRVTMTRDTSTSTVYMELSSLRSEDTAVYYCARGGGSSPRLDYWGQGTLVTVSSASTKGPSVFPLAPSSKSTSGGTAALGCLVKDYFPEPVTVSWNSGALTSGVHTFPAVLQSSGLYSLSSVVTVPSSSLGTQTYICNVNHKPSNTKVDKKVEPKSCGKPGSGKPGSQVQLVQSGAEVKKPGASVKVSCKASGYIFTNNYMHWVRQAPGQGLEWMGIISPSVGRTAYAQKFQGRVTMTRDTSTSTVYMELSSLRSEDTAVYYCARGGGSSPRLDYWGQGTLVTVSSASTKGPSVFPLAPSSKSTSGGTAALGCLVKDYFPEPVTVSWNSGALTSGVHTFPAVLQSSGLYSLSSVVTVPSSSLGTQTYICNVNHKPSNTKVDKKVEPKSCDKTHTCPPCPAPPVAGPSVFLFPPKPKDTLMISRTPEVTCVVVDVKHEDPEVKFNWYVDGVEVHNAKTKPREEQYNSTYRVVSVLTVLHQDWLNGKEYKCKVSNKALPAPIEKTISKAKGQPREPQVYTLPPSREQMTKNQVKLTCLVKGFYPSDIAVEWESNGQPENNYKTTPPVLDSDGSFFLYSKLTVDKSRWQQGNVFSCSVMHEALHNHYTQKSLSLSPGK light: not shown	96	150	–	–	–
XENP37810 (bispecific antibody) heavy 1: EVQLLESGGGLVQPGGSLRLSCAASGFTFSSYYMSWVRQAPGKGLEWVSTISESGDSTYYADSVKGRFTISRDNSKNTLYLQMNSLRAEDTAVYYCAKSGPGLRQVGFDYWGQGTLVTVSSASTKGPSVFPLAPSSKSTSGGTAALGCLVKDYFPEPVTVSWNSGALTSGVHTFPAVLQSSGLYSLSSVVTVPSSSLGTQTYICNVNHKPSDTKVDKKVEPKSCDKTHTCPPCPAPPVAGPSVFLFPPKPKDTLMISRTPEVTCVVVDVKHEDPEVKFNWYVDGVEVHNAKTKPREEEYNSTYRVVSVLTVLHQDWLNGKEYKCKVSNKALPAPIEKTISKAKGQPREPQVYTLPPSREEMTKNQVSLTCDVSGFYPSDIAVEWESDGQPENNYKTTPPVLDSDGSFFLYSKLTVDKSRWEQGDVFSCSVLHEALHSHYTQKSLSLSPGK heavy 2: QVQLVQSGAEVKKPGASVKVSCKASGYIFTNHYMHWVRQAPGQGLEWMGIISPSAGSTDYAQKFQGRVTMTRDTSTSTVYMELSSLRSEDTAVYYCARGGGSSPRLDYWGQGTLVTVSSASTKGPSVFPLAPSSKSTSGGTAALGCLVKDYFPEPVTVSWNSGALTSGVHTFPAVLQSSGLYSLSSVVTVPSSSLGTQTYICNVNHKPSNTKVDKKVEPKSCGKPGSGKPGSQVQLVQSGAEVKKPGASVKVSCKASGYIFTNHYMHWVRQAPGQGLEWMGIISPSAGSTDYAQKFQGRVTMTRDTSTSTVYMELSSLRSEDTAVYYCARGGGSSPRLDYWGQGTLVTVSSASTKGPSVFPLAPSSKSTSGGTAALGCLVKDYFPEPVTVSWNSGALTSGVHTFPAVLQSSGLYSLSSVVTVPSSSLGTQTYICNVNHKPSNTKVDKKVEPKSCDKTHTCPPCPAPPVAGPSVFLFPPKPKDTLMISRTPEVTCVVVDVKHEDPEVKFNWYVDGVEVHNAKTKPREEQYNSTYRVVSVLTVLHQDWLNGKEYKCKVSNKALPAPIEKTISKAKGQPREPQVYTLPPSREQMTKNQVKLTCLVKGFYPSDIAVEWESNGQPENNYKTTPPVLDSDGSFFLYSKLTVDKSRWQQGNVFSCSVLHEALHSHYTQKSLSLSPGK light: not shown	–	–	200	–	–
XENP37808 (bispecific antibody) heavy 1: EVQLLESGGGLVQPGGSLRLSCAASGFTFSSYYMSWVRQAPGKGLEWVSTISGSGDSTYYADSVKGRFTISRDNSKNTLYLQMNSLRAEDTAVYYCAKSGPGLRQVGFDYWGQGTLVTVSSASTKGPSVFPLAPSSKSTSGGTAALGCLVKDYFPEPVTVSWNSGALTSGVHTFPAVLQSSGLYSLSSVVTVPSSSLGTQTYICNVNHKPSDTKVDKKVEPKSCDKTHTCPPCPAPPVAGPSVFLFPPKPKDTLMISRTPEVTCVVVDVKHEDPEVKFNWYVDGVEVHNAKTKPREEEYNSTYRVVSVLTVLHQDWLNGKEYKCKVSNKALPAPIEKTISKAKGQPREPQVYTLPPSREEMTKNQVSLTCDVSGFYPSDIAVEWESDGQPENNYKTTPPVLDSDGSFFLYSKLTVDKSRWEQGDVFSCSVLHEALHSHYTQKSLSLSPGK heavy 2: QVQLVQSGAEVKKPGASVKVSCKASGYIFTNNYMHWVRQAPGQGLEWMGIISPSVGRTAYAQKFQGRVTMTRDTSTSTVYMELSSLRSEDTAVYYCARGGGSSPRLDYWGQGTLVTVSSASTKGPSVFPLAPSSKSTSGGTAALGCLVKDYFPEPVTVSWNSGALTSGVHTFPAVLQSSGLYSLSSVVTVPSSSLGTQTYICNVNHKPSNTKVDKKVEPKSCGKPGSGKPGSQVQLVQSGAEVKKPGASVKVSCKASGYIFTNNYMHWVRQAPGQGLEWMGIISPSVGRTAYAQKFQGRVTMTRDTSTSTVYMELSSLRSEDTAVYYCARGGGSSPRLDYWGQGTLVTVSSASTKGPSVFPLAPSSKSTSGGTAALGCLVKDYFPEPVTVSWNSGALTSGVHTFPAVLQSSGLYSLSSVVTVPSSSLGTQTYICNVNHKPSNTKVDKKVEPKSCDKTHTCPPCPAPPVAGPSVFLFPPKPKDTLMISRTPEVTCVVVDVKHEDPEVKFNWYVDGVEVHNAKTKPREEQYNSTYRVVSVLTVLHQDWLNGKEYKCKVSNKALPAPIEKTISKAKGQPREPQVYTLPPSREQMTKNQVKLTCLVKGFYPSDIAVEWESNGQPENNYKTTPPVLDSDGSFFLYSKLTVDKSRWQQGNVFSCSVLHEALHSHYTQKSLSLSPGK light: not shown	–	–	232	–	Kd [4]: 7.6 nM; Kd [5]: 230 nM
H1_L1.71 (antibody, V domains shown) VH: EVQLLESGGGLVQPGGSLRLSCAASGFTFSSYAMSWVRQAPGKGLEWVSTISGSGDSTYYADSVKGRFTISRDNSKNTLYLQMNSLRAEDTAVYYCAKSGPGLRQVGFDYWGQGTLVTVSS VL: not shown	–	–	–	180	–
H1.1_L1.71 (antibody, V domains shown) VH: EVQLLESGGGLVQPGGSLRLSCAASGFTFSSYYMSWVRQAPGKGLEWVSTISGSGDSTYYADSVKGRFTISRDNSKNTLYLQMNSLRAEDTAVYYCAKSGPGLRQVGFDYWGQGTLVTVSS VL: not shown	–	–	–	91.6	–
